Reference: the supplement of paper PMC12042874
± gives the uncertainty stated by the source.

Assay: amyloid nucleation score (Sup35N fusion, yeast selection) (log enrichment); library NNK3; higher = more nucleation; inactive = no reads after selection
Outline: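 The nucleation score is the log enrichment of output over input reads, calculated with DiMSum and centred on the mode score of non-aggregating sequences. Sequences with under 100 input reads were excluded. Reads came from Illumina sequencing of plasmid inserts from psi-negative yeast expressing Sup35N fused to peptides of 20 random codons, induced 24 hours with 100 μM copper sulfate and grown 7 days at 30°C without adenine and uracil.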

Amyloid nucleation score, -0.246 ± 0.8:
TLSWLRPPPSRPLLFHEVSW

Amyloid nucleation score, inactive:
TFYSSML
TGFLSIHLSWTYTCYMIVER
TGGWTNNEQHFENSGMEVGT
TGHMTDIYYELSHGVEPKGL
TGIGSLCVLRLTYFIRVSIA
TGYAFFHEAS
THFYWADAVVMPAYRVIRRF
THGVR
TICGYI
TICLDLLDWEVEGPYNVVSG
TICPWNATLGGKGDRSMK
TIPFRAINPVSM
TISLGE
TKRWFGLCYESVKLRVRSFA
TKRWHR
TKVNL
TKWFCVFTLSRNINRFTRL
TKYTNPHERSIEMSLFRERQ
TLCST
TLFERRCSGTIMHRIQRREF
TLFGFCAREIVRMRNDHIQV
TLFSSCGLVHLLNCMRWPPG
TLGTLSICLCIFRYPGKTEA
TLHIF
TLHVCIVLSPGRW
TLILTDRTWLNDLSSLLIQL
TLLARFSPRLATTYSNAICG
TLLGNINPLLW
TLMISPENIVRR
TLNGFLNGYEYQ
TLQHLGYVSNIWGVVTAAGS
TLRDKNLLEPIKCDWYTIKT
TLRLLDTVMWHKLGGTRAMS
TLRVYAMVLTWAPKLSFWRS
TLSCYECPVVVRILVVRNCV
TLSELLR
TLTGVPAGSTT
TLTYRSSQND
TLVGFRALKYIRWTCLAHRF
TLVIHIN
TMASYWPMERRRTASELPGV
TMHLTHRYSTVLRESLVGSR
TNESIMCGLAT
TNMVMA
TNQQYGSLGFISTSGIILLF
TNRMDKYCCV
TNSFAYNWLNAW
TNTPIMKCELHTRDFVKVIS
TNYNHCKCEIGLGHILARFT
TPHESLRTCFLTKR
TPHFYLIYALGISLIFWFVE
TPSRLPQAACWQ
TQDGELV
TQHTTYTPLPHTELRLPYPQ
TQMILWVM
TQRTGY
TRFARA
TRFGRSANWLFFSAPTGRQN
TRFVTRNDMYLRYILVCRVA
TRHWDVRSRISRTLVCFGLK
TRLWDKD
TRNLPTN
TRTHPDVNRAKMDVKGDAKI
TSFGPKLPTGVFVCEGSNDR
TSILEWVSFDGSM
TSLLGLRKHFLPHLIYMRNS
TSRDQPRNVYVVVAVI
TSRNESHTSDYSLLNHNSLL

Amyloid nucleation score, 2.52 ± 0.08:
TPVTGQQWNCFCTILHSE

Amyloid nucleation score, 1.71 ± 0.071:
TMSVMPLTVQVLVGRISDGQ

Amyloid nucleation score, 0.305 ± 0.16:
TLYFYNTCLRQCKQYFIDFR

Amyloid nucleation score, -0.453 ± 0.35:
TIGFFSVVNYVWFSAYNWQS

Amyloid nucleation score, 0.207 ± 0.34:
TSGGQRAAVWIYFTNEVMKY

Amyloid nucleation score, 3.4 ± 0.061:
TNYICCSFRFPWNHSYV

Amyloid nucleation score, 2.3 ± 0.086:
TIYCWTQNIHDY

Amyloid nucleation score, 1.1 ± 0.17:
THNVRDMLPATETFASKSGG

Amyloid nucleation score, 1.37 ± 0.1:
TMTIDESTWVVSANMSYRMK

Amyloid nucleation score, 2.48 ± 0.055:
TSQGIYHVVCCSSSEFRTLG

Amyloid nucleation score, 2.56 ± 0.082:
THIGFFFNCIL
